Reference: US20190134161A1 (PEGBIO, published 2019)

Target: glucagon receptor
Assay: cell-based or functional assay

| In Vitro EC50 (cAMP release, HEK293 cells stably expressing the glucagon receptor, cAMP ELISA) | Binder |
| --- | --- |
| 6.94 nM | HSQGTFTSDYSKYLDSRRAQDFVQWLMNTC (not fully specified; mPEG-23 KD-ppMAL conjugated to PB-740 (cysteine added after the 29th amino acid)) [PB-721] |
| 1.45 nM | HSQGTFTSDYSKYLDSRRAQDFVQWLMNTC [PB-740] |
